# T1: MtbHtpG (high-temperature protein G) (Mycobacterium tuberculosis H37Rv, UniProt P9WMJ7 1-647)
# T1 construct: also called Chaperone htpG
# T1 sequence: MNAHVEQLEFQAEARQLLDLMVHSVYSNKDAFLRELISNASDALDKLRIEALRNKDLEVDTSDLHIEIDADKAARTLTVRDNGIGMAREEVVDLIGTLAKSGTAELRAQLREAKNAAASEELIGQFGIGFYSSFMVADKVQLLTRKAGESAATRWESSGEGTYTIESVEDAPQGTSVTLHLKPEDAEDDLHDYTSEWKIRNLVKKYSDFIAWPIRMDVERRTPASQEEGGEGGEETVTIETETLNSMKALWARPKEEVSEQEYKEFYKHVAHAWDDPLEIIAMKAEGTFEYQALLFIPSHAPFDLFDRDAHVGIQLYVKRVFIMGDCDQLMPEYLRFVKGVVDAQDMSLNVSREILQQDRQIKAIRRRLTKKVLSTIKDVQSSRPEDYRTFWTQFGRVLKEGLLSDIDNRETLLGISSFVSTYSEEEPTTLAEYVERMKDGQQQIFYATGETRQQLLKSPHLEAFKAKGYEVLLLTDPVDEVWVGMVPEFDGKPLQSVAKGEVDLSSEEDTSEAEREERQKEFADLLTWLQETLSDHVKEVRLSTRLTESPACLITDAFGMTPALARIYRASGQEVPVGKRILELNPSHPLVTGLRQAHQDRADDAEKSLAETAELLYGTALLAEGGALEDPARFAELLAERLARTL
# Target: T1, MtbHtpG (high-temperature protein G)
# Assay: SPR
# Conditions: both partners purified
binder,measurement,value
MtbCsm3 (natural protein) MTTSYAKIEITGTLTVLTGLQIGAGDGFSAIGAVDKPVVRDPLSRLPMIPGTSLKGKVRTLLSRQYGADTETFYRKPNEDHAHIRRLFGDTEEYMTGRLVFRDTKLTNKDDLEARGAKTLTEVKFENAINRVTAKANLRQMERVIPGSEFAFSLVYEVSFGTPGEEQKASLPSSDEIIEDFNAIARGLKLLELDYLGGSGTRGYGQVKFSNLKARAAVGALDGSLLEKLNHELAAV,Kd,59.4 nM
same,koff,0.000914 s⁻¹
same,kon,15400 M⁻¹ s⁻¹
